Here are results for two molecules from patent US20210221875A1 (Chugai, published 2021).

The target in experiment [1] is T1, Human aggrecan G1-IGD-G2 domain with Flag-tag on its C-terminus (human, UniProt P16112 17-675).
T1 construct: used unlabelled as Biacore analyte; also called human aggrecan G1-IGD-G2-Flag; human Aggrecan G1G2 flag
Description: BLI (Octet RED), biotin-labeled human aggrecan G1-IGD-G2-Flag on streptavidin sensor, 27 C.

For a further experiment, the target named is T2, biotinylated plexin A1 (human, UniProt Q9UIW2 27-1253, biotin on the AviTag sequence (BirA co-expression)).
T2 construct: extracellular region of plexin A1 linked to AviTag and FLAG tag; also called biotin-labeled human plexin A1; human plexin A1
T2 sequence (Q9UIW2 other isoform, or with tags, fused parts or gaps limits assumed): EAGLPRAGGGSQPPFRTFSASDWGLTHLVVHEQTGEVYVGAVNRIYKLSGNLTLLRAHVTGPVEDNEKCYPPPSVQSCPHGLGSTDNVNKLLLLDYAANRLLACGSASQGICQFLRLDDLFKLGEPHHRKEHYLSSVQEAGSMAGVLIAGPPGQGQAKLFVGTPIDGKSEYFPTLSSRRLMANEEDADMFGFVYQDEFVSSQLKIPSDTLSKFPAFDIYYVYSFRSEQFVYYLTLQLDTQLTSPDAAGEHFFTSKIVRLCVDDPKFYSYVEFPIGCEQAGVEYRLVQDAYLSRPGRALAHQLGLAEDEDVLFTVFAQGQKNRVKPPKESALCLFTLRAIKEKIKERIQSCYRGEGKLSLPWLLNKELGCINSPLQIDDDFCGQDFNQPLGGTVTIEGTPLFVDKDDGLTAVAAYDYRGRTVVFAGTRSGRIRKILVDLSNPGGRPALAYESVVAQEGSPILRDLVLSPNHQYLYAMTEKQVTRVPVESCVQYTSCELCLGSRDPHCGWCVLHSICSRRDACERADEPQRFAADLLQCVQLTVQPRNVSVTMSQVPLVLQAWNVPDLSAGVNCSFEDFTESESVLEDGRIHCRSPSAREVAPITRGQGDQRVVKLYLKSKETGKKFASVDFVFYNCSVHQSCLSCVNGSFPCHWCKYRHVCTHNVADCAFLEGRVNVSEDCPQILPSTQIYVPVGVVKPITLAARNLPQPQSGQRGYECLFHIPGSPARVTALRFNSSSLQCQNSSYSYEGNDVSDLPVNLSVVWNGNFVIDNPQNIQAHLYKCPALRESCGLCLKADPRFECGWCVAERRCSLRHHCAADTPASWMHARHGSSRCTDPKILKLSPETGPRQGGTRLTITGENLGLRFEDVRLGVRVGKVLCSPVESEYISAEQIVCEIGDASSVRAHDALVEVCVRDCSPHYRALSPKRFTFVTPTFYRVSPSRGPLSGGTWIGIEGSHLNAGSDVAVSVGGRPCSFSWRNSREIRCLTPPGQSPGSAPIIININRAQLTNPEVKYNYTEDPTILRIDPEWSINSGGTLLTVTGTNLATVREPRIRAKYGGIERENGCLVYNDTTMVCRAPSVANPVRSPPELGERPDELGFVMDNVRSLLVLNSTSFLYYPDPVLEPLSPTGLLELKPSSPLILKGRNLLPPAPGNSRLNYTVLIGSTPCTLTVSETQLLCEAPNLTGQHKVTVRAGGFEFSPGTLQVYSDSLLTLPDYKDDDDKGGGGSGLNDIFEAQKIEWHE
Put plainly: BLI (Octet), in the same way as in Example 3. (In BLI a coated tip is dipped into the sample, and binding shifts an interference pattern.)

B1: hA2R3p.038-G1mISHI01/VK1.39-k0MT (antibody, human IgG1, kappa, V domains shown)
VH: QLQLVESGGGLVQAGGSLRLSCAASGRTFRTYAMGWFRQAPGKEREFVSSISGSGGSKIYADSVKGRFTISRDNAKDTVNLQMNSLKPEDTAVYYCAVARGYYGTMASDPGLYDYWGQGTQVTVSS
VL: DIQMTQSPSSLSASVGDRVTITCRASQSISSYLNWYQQKPGKAPKLLIYAASSLQSGVPSRFSGSGSGTDFTLTISSLQPEDFATYYCLQFDSYPLTFGGGTKVEIKR
For the molecule B1, the binding result in experiment [1] is given as “binds”.

B2: PX03-R4_009-G1mISHI01/VK1-39-k0MT (antibody, human IgG1, kappa, V domains shown)
VH: QLQLVESGGGLVQPGGSLRLSCTASGISFSISTMGWYRQAPGKQRELVATIASGGEAYYANSVKGRFTISREYAENTVFLQMNRLKPEDSAVYYCNTKFPWSTDWNARGQGTQVTVSG
VL: B1 VL
notes: uncleaved; light chain printed once for the five molecules
Consider B2, for which the binding result with biotinylated plexin A1 is on record as “no binding”.
